Changes are numbered by the printed parent chain. Numbers in names are those of the source.
How the values were obtained:
[1] = biological target: the molecule itself; assay: crystal structure
[2] = biological target: the molecule itself; assay: non-reducing SDS-PAGE
[3] = biological target: the molecule itself; assay: SEC-MALS

B1: mouse 4-1BB ligand ectodomain (amino acids 140-309) without purification tag, co-expressed with m4-1BB for the complex structure (domain or fragment, UniProt P41274 140-309, looked up)
chain: TTQQGSPVFAKLLAKNQASLCNTTLNWHSQDGAGSSYLSQGLRYEEDKKELVVDSPGLYYVFLELKLSPTFTNTGHKVQGWVSLVLQAKPQVDDFDNLALTVELFPCSMENKLVDRSWSQLLLLKAGHRLSVGLRAYLHGAQDAYRDWELSYPNTTSFGLFLVKPDNPWE
modifications: disulfide linked dimer
stoichiometry N [1]: 2

B2: mouse 4-1BB ligand ectodomain (amino acids 140-309) S256F (domain or fragment, UniProt P41274 140-309, looked up)
chain: B1 chain with S117F
modifications: inter-molecular disulfide through Cys 246
stoichiometry N [2]: 2

B3: mouse 4-1BB ligand ectodomain (amino acids 140-309) C246S (domain or fragment, UniProt P41274 140-309, looked up)
chain: B1 chain with C107S
stoichiometry N [3]: 2

Source: paper doi:10.1101/444554 (bioRxiv, 2018)
